These results are taken from patent US20190119318A1.

Broadly, the pKd is −log10 of the Kd, conventionally taken in molar units. A higher pKd goes with a small Kd. One may read the koff as the rate constant with which the complex falls apart. A lower koff goes with slow dissociation. One may read the kon as the second-order rate constant of association.

pKd: −log10 of the molar value.

Test [1] concerns the target human polyclonal IgG (Gammanorm) (human). Nature of the test: column DBC, 6 min residence; agarose beads; ligand 9.7 mg/ml.
The target is the same in test [2]. As to the kind of experiment: column DBC; ligand 9.7 mg/ml; after 6 x 4 h 1.0 M NaOH.
Test [3] shares this target. As to the kind of experiment: column DBC; vs reference Zvar4; 0.5 M NaOH.
For test [4] the target is unchanged. As to the kind of experiment: column DBC, 6 min residence; agarose beads; ligand 9.7 mg/ml. The source holds these as a separate data set.
Test [5] has the same target. As to the kind of experiment: column DBC; vs reference Zvar4; 1.0 M NaOH.
For test [6] the target is unchanged. As to the kind of experiment: column DBC; ligand 9.7 mg/ml; after 6 x 4 h 0.5 M NaOH.
Test [7] shares this target. Nature of the test: column DBC, 6 min residence; agarose beads; ligand 7.0 mg/ml.
For test [8] the target is unchanged. Nature of the test: column DBC, 6 min residence; agarose beads; ligand […].
The target is the same in test [9]. Nature of the test: column DBC; ligand 7.0 mg/ml; after 6 x 4 h 0.5 M NaOH.
For test [10] the target is unchanged. As to the kind of experiment: column DBC; ligand […]; after 6 x 4 h 0.5 M NaOH.
Test [11] shares this target. Nature of the test: SPR; vs reference Zvar1; 0.5 M NaOH cycles.
Test [12] shares this target. As to the kind of experiment: SPR; after 96-100 CIP cycles 0.5 M NaOH. In general terms: In SPR one partner is held on a chip, and binding of the other changes the refractive index at the surface.
The target in test [13] is IgG1 monoclonal antibody (probe molecule). As to the kind of experiment: SPR (Biacore), ligand on CM5 chip, IgG1 mAb as probe.
Test [14] has as its target human polyclonal IgG (Gammanorm) (human). As to the kind of experiment: column DBC, 6 min residence; agarose beads; ligand […]. The source holds these as a separate data set.
Test [15] has the same target. Nature of the test: column DBC; ligand 7.2 mg/ml; after 6 x 4 h 0.5 M NaOH.
For test [16] the target is unchanged. Nature of the test: column DBC; ligand […]; after 6 x 4 h 1.0 M NaOH.
For test [17] the target is unchanged. Nature of the test: column DBC, 6 min residence; agarose beads; ligand 7.2 mg/ml.
Test [18] has the same target. As to the kind of experiment: SPR; vs reference Zvar4; 0.5 M NaOH.
For test [19] the target is unchanged. Nature of the test: SPR; after 200 CIP cycles 0.5 M NaOH.
For test [20] the target is unchanged. Nature of the test: SPR; after 100 CIP cycles 1 M NaOH.
The target is the same in test [21]. As to the kind of experiment: SPR; after 300 CIP cycles 0.5 M NaOH.
Test [22] has the same target. As to the kind of experiment: SPR; vs reference Zvar4; 1 M NaOH.
The target is the same in test [23]. Nature of the test: SPR; after 100 CIP cycles 0.5 M NaOH.
The target is the same in test [24]. As to the kind of experiment: column DBC, 6 min residence; agarose beads; ligand 10.8 mg/ml.
Test [25] has the same target. As to the kind of experiment: column DBC; ligand 10.8 mg/ml; after 6 x 4 h 0.5 M NaOH.

On to “Zvar(N11K,H18K,S33K,D37E,A42R,N43A,L44I,K50R,L51Y)4 with an additional N-terminal cysteine (designed binder)”, for which the results for the initial IgG capacity Qb10 in test [1] and in [4] were 56.3 mg/mL and 62.1 mg/mL, respectively. Moreover, the remaining IgG capacity Qb10 after six 4 h cycles in [2] turned out to be 48.1 mg/mL; in test [6], 52 mg/mL. Further, the remaining IgG capacity after six 4 h cycles is 77% in test [2] and 92% in test [6]. Besides, the capacity retention relative to ref. after six 4 h cycles in test [3] was 1.53; in test [5], 1.44.

Consider “Zvar(Q9A,N11E,N28A,N43A)4 with an additional N-terminal cysteine (designed binder)”, for which the initial IgG capacity Qb10 in test [7] came out at 49.1 mg/mL; in [8], 50 mg/mL. In [3] (ligand content 7.0 mg/ml), this substance gave a capacity retention relative to ref. after six 4 h cycles of 1.5. Also, the figures for the remaining IgG capacity Qb10 after six 4 h cycles in test [9] and in test [10] were 44.1 mg/mL and 46.2 mg/mL, respectively. Moreover, the remaining IgG capacity after six 4 h cycles amounted to 90% in test [9] and 93% in test [10].

“Zvar(Q9A,N11E,Q40V,A42K,N43A,L44I)1 (designed binder)” showed a capacity relative to reference in test [11] of 1.4. This substance also displayed a capacity after 96-100 cycles in test [12] of 66%. In [13], this substance showed a pKd of 8.97, a koff of 0.000437 s⁻¹ and a kon of 410000 M⁻¹ s⁻¹.

Regarding “Zvar(Q9A,N11E,Q40V,A42K,N43A,L44I)4 with an additional N-terminal cysteine (designed binder)”, the results for the initial IgG capacity Qb10 in test [14], in [8] and in test [17] were 60.3 mg/mL, 56.3 mg/mL and 49 mg/mL, respectively. Moreover, the remaining IgG capacity Qb10 after six 4 h cycles in test [15] came out at 44.2 mg/mL; in [16], 56 mg/mL; in test [10] it was 53.6 mg/mL. For the same substance, the remaining IgG capacity after six 4 h cycles in test [15] turned out to be 90%; in [16], 93%; in [10], 95%. Moreover, the capacity retention relative to ref. after six 4 h cycles in test [3] (ligand content 7.2 mg/ml) was 1.5; in test [5] it was 1.67.

In test [18], “Zvar(Q9A,N11E,Q40V,A42K,N43E,L44I)4 (designed binder)” yielded a capacity relative to ref. 100 cycles of 1.25, a capacity relative to ref. 200 cycles of 1.81 and a capacity relative to ref. 300 cycles of 3. In test [19], this substance yielded a remaining capacity 200 cycles of 65%. The substance also had a remaining capacity 100 cycles in test [20] of 54%. The substance further had a remaining capacity 300 cycles in [21] of 48%. In addition, in test [22], the capacity relative to ref. 100 cycles was 2. The same substance came in with a remaining capacity 100 cycles in test [23] of 84%.

For the substance “Zvar(Q9A,N11K,H18K,D37E,A42R)4 with an additional N-terminal cysteine (designed binder)”, the capacity retention relative to ref. after six 4 h cycles in [3] stood at 1.3. In [24], this substance registered an initial IgG capacity Qb10 of 56.9 mg/mL. Also, in test [25], the remaining IgG capacity Qb10 after six 4 h cycles amounted to 52.5 mg/mL and the remaining IgG capacity after six 4 h cycles is 92%.
